Measurements as given in patent US20180306791A1 (GlaxoSmithKline, published 2018).

Key:
[1] = target: T1, BCMA (human, UniProt Q02223 1-184); assay: flow cytometry on JIM3 cells (sheet group MODERATE); ratio of MFI to isotype IgG2a-488
T1 construct: whole, on cells; Endogenous on human cell lines and patient cells, or from plasmid pCDNA3.1 hBCMA in ARH-77 cells; also called CD269; TNFRSF17
T1 sequence (looked up): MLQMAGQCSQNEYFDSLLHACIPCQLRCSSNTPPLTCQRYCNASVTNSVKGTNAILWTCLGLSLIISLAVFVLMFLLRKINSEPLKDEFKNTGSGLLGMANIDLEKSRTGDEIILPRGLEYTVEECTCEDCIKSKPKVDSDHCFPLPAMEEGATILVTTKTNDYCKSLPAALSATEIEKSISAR

[2] = target: T1, BCMA; assay: flow cytometry on OPM2 cells (sheet group MODERATE); ratio of MFI to isotype IgG2a-488
[3] = target: T1, BCMA; assay: flow cytometry on U266 cells (sheet group MODERATE); ratio of MFI to isotype IgG2a-488
[4] = target: T1, BCMA; assay: flow cytometry inset, low BCMA-transduced (LOW) ARH77 cells; ratio to isotype control
[5] = target: T1, BCMA; assay: flow cytometry on MM1.s cells (sheet group MODERATE); ratio of MFI to isotype IgG2a-488
[6] = target: T1, BCMA; assay: flow cytometry inset, high BCMA-transduced (HIGH) ARH77 cells; ratio to isotype control
[7] = target: T1, BCMA; assay: flow cytometry on Daudi cells (non-MM line; group LOW); ratio of MFI to isotype IgG2a-488
[8] = target: T1, BCMA; assay: flow cytometry on RPMI8226 cells (printed RPM18226; group LOW); ratio of MFI to isotype IgG2a-488
[9] = target: T1, BCMA; assay: flow cytometry on JJN3 cells (printed JIN3 on the sheet; group MODERATE); ratio of MFI to isotype IgG2a-488
[10] = target: T1, BCMA; assay: flow cytometry inset, non-transduced (NT) ARH77 cells with negligible surface BCMA; ratio to isotype control
[11] = target: T1, BCMA; assay: flow cytometry, CD138+ gated bone marrow cells of patient GSK064 (group LOW); ratio of MFI to IgG2a-488 control
[12] = target: T1, BCMA; assay: flow cytometry, CD138+ gated bone marrow cells of patient GSK072 (group LOW); ratio of MFI to IgG2a-488 control
[13] = target: T1, BCMA; assay: flow cytometry on H929 cells (sheet group HIGH); ratio of MFI of BCMA stained to isotype IgG2a-488 stained cells
[14] = target: T1, BCMA; assay: flow cytometry, CD138+ gated bone marrow cells of patient GSK039 (group HIGH); ratio of MFI to IgG2a-488 control
[15] = target: T1, BCMA; assay: flow cytometry, CD138+ gated bone marrow cells of patient GSK048 (group HIGH); ratio of MFI to IgG2a-488 control
[16] = target: T1, BCMA; assay: flow cytometry, CD138+ gated bone marrow cells of patient GSK034 (group MODERATE); ratio of MFI to IgG2a-488 control
[17] = target: T1, BCMA; assay: flow cytometry, CD138+ gated bone marrow cells of patient GSK045 (group MODERATE); ratio of MFI to IgG2a-488 control
[18] = target: T1, BCMA; assay: flow cytometry, CD138+ gated bone marrow cells of patient GSK050 (group MODERATE); ratio of MFI to IgG2a-488 control
[19] = target: T1, BCMA; assay: flow cytometry on Raji cells (non-MM line, sheet group NEGATIVE for BCMA); ratio of MFI to isotype IgG2a-488; reflects absence of the target on these cells
[20] = target: T1, BCMA; assay: flow cytometry on SUPT1 cells (non-MM line, sheet group NEGATIVE for BCMA); ratio of MFI to isotype IgG2a-488; reflects absence of the target on these cells
[21] = target: T1, BCMA; assay: flow cytometry on KMM1 cells (sheet group NEGATIVE, text: low BCMA expression); ratio of MFI to isotype IgG2a-488; reflects the low level of the target on these cells
[22] = target: T1, BCMA; assay: flow cytometry of CD138+ cells of patient GSK048; number in the title of panel II
Method: (§1) FIG. 14: J6M0-MMAF activity on primary CD138+ cells. (A) BM MNCs from one representative patient (GSK 087) with moderate BCMA expression incubated with J6M0-MMAF. Viable CD138+ cells (percentage of control) after 2 and 6 days (left panel) obtained by analyzing CD138+ cells by flow cytometry and gating CD138+ fraction (middle panel) onto AnnexinV/PI dot-plot (right panel). (B) Four representative experiments showing viable CD138+ cells after culture of BM MNCs from myeloma patients with concentrations of J6M0-MMAF at varying time points. For each patient, histogram showing binding of J6M0-wtFc PE to CD138+ cells (black) compared to cells pre-incubated with Fc block as control (white) and where available IHC staining with MIB1 (pink, nuclear) and CD138 (membrane, brown) as a measure of plasma cell proliferation.
(§2) For assessment of surface BCMA expression, murine anti-BCMA (clone 5307118G03, conjugated to AlexaFluor488), and the humanised antibody, J6M0-wtFc conjugated to PE were used in parallel. In the case of primary MM cells, staining was carried out on bone marrow (BM) mononuclear cells (MNCs) in 100μl PBS (Lonza)/0.5% BSA(PAA), using anti CD138 APC (Miltenyi), to identify tumour cells. […] A semi-quantitative measure of BCMA surface expression on MM cells was obtained from the ratio of the MFI of anti BCMA, versus isotype control stained samples (MFI ratio).

[23] = target: T1, BCMA; assay: flow cytometry of CD138+ cells of patient GSK087; number in the title of panel IV
Method: as §1, §2

[24] = target: T1, BCMA; assay: flow cytometry of CD138+ cells of patient GSK085; number in the title of panel III
Method: as §1, §2

B1: S307118G03 (antibody, from another filing, mouse IgG2a, V domains shown)
VH: EVQLQQSGPELVKPGASVKISCKASGYTFTDYYMKWVKQSHGKSLEWIGEIYPNNGGITYNQKFKGKATLTVDKSSSTAYMELRSLTSEDSAVYYCANGYEFVYWGQGTLVTVSA
VL: DIQMTQTASSLSASLGDRVTISCSASQGISNYLNWYQQKPDGTVKLLIYYTSSLHSGVPSRFSGSGSGTDYSLTISNLEPEDIATYYCQQYSKLPWTFGGGTKLEIKR
MFIr [1]: 5.7 | MFIr [2]: 4.5 | MFIr [3]: 5.8 | MFIr [4]: 16.6 | MFIr [5]: 6.8 | MFIr [6]: 54.8 | MFIr [7]: 2.9 | MFIr [8]: 2 | MFIr [9]: 4.6 | MFIr [10]: 1.8 | MFIr [11]: 2.5 | MFIr [12]: 2 | MFIr [13]: 15.3 | MFIr [14]: 11.2 | MFIr [15]: 11.2 | MFIr [16]: 4.8 | MFIr [17]: 3.8 | MFIr [18]: 6 | MFIr [19]: 1.2 | MFIr [20]: 1 | MFIr [21]: 1.1

B2: J6M0-wtFc (antibody, IgG1, V domains shown)
VH: QVQLVQSGAEVKKPGSSVKVSCKASGGTFSNYWMHWVRQAPGQGLEWMGATYRGHSDTYYNQKFKGRVTITADKSTSTAYMELSSLRSEDTAVYYCARGAIYDGYDVLDNWGQGTLVTVSS
VL: DIQMTQSPSSLSASVGDRVTITCSASQDISNYLNWYQQKPGKAPKLLIYYTSNLHSGVPSRFSGSGSGTDFTLTISSLQPEDFATYYCQQYRKLPWTFGQGTKLEIKR
notes: PE-conjugated for flow cytometry; no sentence says it outright; also called J6M0-wtFc PE; wild type Fc form of J6M0
MFI ratio [22]: 16.7 | MFI ratio [23]: 7 | MFI ratio [24]: 3.65
